In article PMC4349660:

Experiments:
[1] = target: Glycophorin A, native, on intact unmodified human erythrocytes (human (endogenous in erythrocytes)) (UniProt P02724); assay: backscattering interferometry (BSI); free solution, label-free; intact erythrocytes at 0.1% haematocrit in 0.01% BSA-PBS, PfEBA175 dilution series up to 1 μM, 1 h at room temperature; reference: neuraminidase-treated erythrocytes, subtracted; square hyperbolic fit
[2] = target: Basigin, native, on intact unmodified human erythrocytes (human (endogenous in erythrocytes)); assay: backscattering interferometry (BSI); free solution, label-free; intact erythrocytes at 0.1% haematocrit in 0.01% BSA-PBS, PfRH5 dilution series up to 4.5 μM, 1 h at room temperature; reference: erythrocytes pre-incubated with 10 μg/mL anti-BSG antibody MEM-M6/6, subtracted; square hyperbolic fit

| Substance | Kd [1] | Kd [2] |
| --- | --- | --- |
| PfEBA175, entire ectodomain, monomeric Cd4-tagged recombinant protein (ligand) | 50 nM | – |
| PfRH5, entire ectodomain, Cd4-tagged monomer (ligand) | – | 1100 nM |
